Paper PMC2810336, “Mutational Analysis of Highly Conserved Residues in the Phage PhiC31 Integrase Reveals Key Amino Acids Necessary for the DNA Recombination”

Biological target: T1, phiC31 integrase C374A (Streptomyces phage phiC31, UniProt Q38194 1-613, C374A)
T1 sequence: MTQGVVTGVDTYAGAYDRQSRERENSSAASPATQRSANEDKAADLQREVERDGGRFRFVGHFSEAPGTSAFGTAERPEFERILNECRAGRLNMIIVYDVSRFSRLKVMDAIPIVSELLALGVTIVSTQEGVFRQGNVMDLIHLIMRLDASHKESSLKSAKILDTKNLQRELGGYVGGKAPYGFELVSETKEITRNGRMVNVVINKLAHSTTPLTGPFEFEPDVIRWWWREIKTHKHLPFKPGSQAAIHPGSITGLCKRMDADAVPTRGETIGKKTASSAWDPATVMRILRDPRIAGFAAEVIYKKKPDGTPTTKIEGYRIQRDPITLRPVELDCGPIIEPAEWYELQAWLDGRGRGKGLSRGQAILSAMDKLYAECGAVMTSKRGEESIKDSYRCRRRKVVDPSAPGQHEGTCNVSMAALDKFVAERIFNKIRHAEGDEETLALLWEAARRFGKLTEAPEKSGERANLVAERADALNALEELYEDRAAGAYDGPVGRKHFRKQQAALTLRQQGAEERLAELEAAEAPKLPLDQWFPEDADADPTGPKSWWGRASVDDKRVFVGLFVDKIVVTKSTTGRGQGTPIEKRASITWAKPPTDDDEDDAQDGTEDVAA
Assay: EMSA; 400 nM protein; 50 ng/ul Poly (competitor (so in the source)), 0.05% NP-40, 50 mM KCl, 5 mM MgCl2, 10 mM EDTA, 20 ul, 0.4 ng (16 fmol) probe; 30 min at room temperature (Methods) or 30 C; pH not stated; synapsis 2 h at 30 C
Conditions: protein: recombinant; tags: C-terminal His; chain copies: 2; label: biotin, double-strand end-labeled; blunt

B1: attB 41 bp (dsDNA)
DNA 1: CGGGTGCCAGGGCGTGCCCTTGGGCTCCCCGGGCGCGTACT
DNA 2: AGTACGCGCCCGGGGAGCCCAAGGGCACGCCCTGGCACCCG
  binding signal: 0 % of WT
